In US20250027068:

Biological target: pooled human IgG (human IgG1,2,3 and 4)

Row | Protein | Enzyme Activity Endpoint Assay: Fab′2 [ng/µL] | Enzyme Activity Endpoint Assay: Fc [ng/µL] | Enzyme Activity Endpoint Assay: IgG [ng/µL] | Enzyme Activity Endpoint Assay: scIgG [ng/µL]
1 | PRT-283 (protein) MVTSVWTKGVTPPAKFTQGEDVFHAPYDANQGWYDITKTFNGKDDLLCGAATAGNMLHWWFDQNKEKIEAYLKKHPDKQKIMFGDQELLDVRKVINTKGDQTNSELFNYFRDKAFPNLSARRIGVMPDLVLDMFINGYYLNVYKTQTTDVNRTYQEKDRRGGIFDAVFTRGDQSKLLTSRHDFKEKNLKEISDLIKKELTEGKALGLSHTYANVRISHVINLWGADFDSNGNLKAIYVTDSDSNASIGMKKYFVGVNSAGKVAISAKEIKEDNIGAQVLGLFTLSTGQDSWNQTN | 380 | 271 | 186 | 91
2 | PRT-284 (protein) MVTSVWTKGVTPPAKFTQGEDVFHAPYVANQGWYDITKTFNGKDDLLCGAATAGNMLHWWFDQNKEKIEAYLKKHPDKQKIMFGDQELLDVRKVINTKGDQTNSELFNYFRDKAFPNLSARRIGVMPDLVLDMFINGYYLNVYKTQTTDVNRTYQEKDRRGGIFDAVFTRGDQSKLLTSRHDFKEKNLKEISDLIKKELTEGKALGLSHTYANVRLNHVINLWGADFDSNGNLKAIYVTDSDSNASIGMKKYGVGVNSAGKVAISAKEIKEDNIGAQVLGLFTLSTGQDSWNQTN | 72 | 184 | 45 | 483
3 | PRT-260 (protein) MVTSVWTKGVTPPTNFTYGEDVLHAPYVANQGWYDITKTFNGKDNLLCGAATAGNMLHWWFDQNKEQIENYLKKHPEKQKINFNGEQLFDVKEAIDTKDSQLDSKLFDYFKEKAFPNLSTKHLGVFPDHVIDMFINGYRLSLLNHGPTPVKRGSKDKRGGIFDAVFTRGVQSKLLTNRHDFKEKTLKEISDLIKQELTEGKALGISHTYANVRINHVINLWGADFDAEGNLEAIYVTDSDTNPSIGMKKYFVGVNSSGKVAISAKEIEEDNIGAQVLGLFTLSTGQDIWNQTN | 793 | 354 | 0 | 0
4 | PRT-244 (protein) MVTSVWTKGVTPPANFTQGEDVFHAPYVANQGWYDITKTFNGKDDLLCGAATAGNMLHWWFDQNKDQIKRYLEEHPEKQKINFNGEQMFDVKEAIDTKNHQLDSKLFEYFLEKAFPNLSTKHLGVFPDHVIDMFINGYRLSLLNHGPTPVKEGSKDPRGGIFDAVFTRGDQSKLLTSRHDFKEKNLKEISDLIKKELTEGKALGLSHTYANVRINHVINLWGADFDSNGNLKAIAVTDSDSNASIGMKKYFVGVNSSGKVAISAKEIKEDNIGAQVLGLFTLSTGQDSWNQTN | 998 | 429 | 0 | 0
5 | PRT-267 (protein) MVTSVWTKGVTPPTDFIYGEDVLHAPYKAGQGWYDITKTFNGKDDLLCGAATAGNMLHWWFDQNKEQIENYLKKHPEKQKINFNGEQMFDVKEAIDTKDSQLDSKLFDYFKEKAFPNLSTKHLGVFPDHVIDMFINGYRLSLLNHGPTPVKRGSKDPRGGIFDAVFTRGDQSKLLTNRHDLKNKTLKEISDLIKQELTEGKALGISHTYANVRINHVINLWGADFDAEGNLEAIYVTDSDSNPSIGMKKYFVGVNSSGKVAISAKEIEEDNIGAQVLGLFTLSTGQDIWNQTN | 1090 | 438 | 0 | 0
6 | PRT-268 (protein) MVTSVWTKGVTPPTDFIYGEDVLHAPYKAGQGWYDITKLFNGKDDLLCGAATAGNMLHWWFDQNKEQIENYLKKHPEKQKINFNGEQMFDVKEAIDTKDSQLDSKLFDYFKEKAFPNLSTKHLGVFPDHVIDMFINGYRLSLLNHGPTPVKRGSKDPRGGIFDAVFTRGDQSKLLTNRHDLKNKTLKEISDLIKQELTEGKALGISHTYANGRINHVINLWGADFDAEGNLEAIYVTDSDSNPSIGMKKYFVGVNSSGKVAISAKEIEEDNIGAQVLGLFTLSTGQDIWNQTN | 429 | 325 | 90 | 282
7 | PRT-252 (protein) MVTSVWTKGVTPPTNFTYGEDVLHAPYVANQGWYDITKLFNGKDDLLCGAATAGNMLHWWFDQNKEQIENYLKKHPEKQKINFNGEQMFDVKEAIDTKDSQLDSKLFEYFLEKAFPNLSTKHLGVFPDHVIDMFINGYRLSLLNHGPTPVKRGSKDPRGGIFDAVFTRGDQSKLLTNRHDFKEKTLKEISDLIKQELTEGKALGISHTYANGRINHVINLWGADFDAEGNLEAIAVTDSDSNASIGMKKYFVGVNSSGKVAISAKEIEEDNIGAQVLGLFTLSTGQDIWNQTN | 634 | 365 | 56 | 0
8 | PRT-307 (protein) MQITSVWTKGVTPLTPEQFRKNNEDVIHAPYLAHQGWYDITKAFDGKDNLLCGAATAGNMLHWWFDQNKTEIEAYLSKHPEKQKIIFNNQELFDLKAAIDTKDSQTNSQLFNYFRDKAFPNLSARQLGVMPDLVLDMFINGYYLNVGKTQSTDVNRPYQDKDKRGGIFDAVFTRGDQTTLLTARHDLKNKGLNDISTIIKQELTEGRALALSHTYANVSISHVINLWGADFNAEGNLEAIYVTDSDANASIGMKKYFVGRNAHGHVAISAKKIEGENIGAQVLGLFTLSSGKDIWQKLS | 215 | 290 | 138 | 614
9 | PRT-315 (protein) MQITSVWTKGVTPLTPEQFRENNEDVIHAPYLAHQGWYDITKAFDGKDNLLCGAATAGNMLHWWFDQNKTEIEAYLSKHPEKQKIIFNNQELFDLKAAIDTKDSQTNSQLFDYFRDKAFPNLSARQLGVMPDLVLDMFINGYYLNVFKTQSTDVNRPYQDKDKRGGIFDAVFTRGDQTTLLTARHDLKNKGLNDISTIIKQELTEGRALALSHTYANVSISHVINLWGADFNAEGELEAIYVTDSDANPSIGMKKYFVGRNAHGHVAISAKKIEGENIGAQVLGLFTLSSGKDIWQKLS | 981 | 408 | 0 | 0
10 | PRT-323 (protein) MTITSVWTKGVTPPTPEDFRENNEDVLHAPYVANQGWYDITKTFDGKDNLLCGAATAGNMLHWWFDQNKEEIERYLKKHPEKQKIIFNNQEWFDVKAAIDTKDSQTNSKLFNYFRDKAFPNLSARQLGVMPDLVLDMFINGYYLNLPKTQSTDVNRPYQDKDKRGGIFDAVFTRGDQTTLLTARHDLKNKGLNEISDLIKQELTEGKALALSHTYANVRINHVINLWGADFDAEGNLIAIYVTDSDANASIGMKKYAVGVNANGKVAISAKKIEGDNIGAQVLGLFTLSTGQDIWQKLS | 130 | 256 | 235 | 743
11 | PRT-331 (protein) MTITSVWTKGVTPPTPEDFRENNEDVLHAPYVANQGWYDITKTFDGKDNLLCGAATAGNMLHWWFDQNKEEIERYLKKHPEKQKIIFNNQELFDVKAAIDTKDSQTNSKLFDYFRDKAFPGLSARQLGVFPDLVLDMFINGYYLNLGKTQSTDVNRPYQDKDKRGGIFDAVFTRGVQTTLLTARHDLKNKGLNEISDLIKQELTEGKALALSHTYANVRINHVINLWGADFDAEGNLIAIYVTDSDANASIGMKKYFVGRNANGKVAISAKKIEGDNIGAQVLGLFTLSTGQDQWQKLS | 954 | 398 | 0 | 0
12 | PRT-291 (protein) MVTSVWTKGVTPPADFTQGEDVFHAPYVANQGWYDITKTFNGKDDLLCGAATAGNMLHWWFDQNKEYIEAYLKKHPEKQKIMFGDQELLDVRKAINTKGSQKNSELFNYFRDKAFPNLSARRLGVMPDLVLDMFINGYYLNVTKTQTTDVNRTYQEKDKRGGIFDAVFTRGDQSKLLTSRHDFKEKGLKEISDLIKQELTEGKALGLSHTYANVRLNHVINLWGADFDSDGNLKAIYVTDSDSNASIGMKKYFVGVNSSGKVAISAKEIKEDNIGAQVLGLFTLSTGQDIWNQTN | 1020 | 420 | 0 | 0
13 | PRT-299 (protein) MVTSVWTKGVTPPTDFIKGEDVFHAPYKAGQGWYDITKTFNGKDDLLCGAATAGNMLHWWFDQNKEYIEAYLKKHPEKQKIMFGDQELLDVRKAINTKGSQKNSELFNYFRDKAFPNLSARRLGVMPDLVLDMFINGYYLNVTKTQTTDVNRTYQEKDKRGGIFDAVFTRGDQSKLLTSRHDFKEKGLKEISDLIKQELTEGKALGLSHTYANVRIGHVINLWGADFDSDGNLKAIYVTDSDSNASIGMKKYFVGVNSSGKVAISAKEIKEDNIGAQVLGLFTLSTGQDIWNQTN | 549 | 378 | 368 | 0
14 | PRT-275 (protein) MVTSVWTKGVTPPTDFIYGEDVLHAPYKAGQGWYDITKLFNGKDNLLCGAATAGNMLHWWFDQNKEQIENYLKKHPEKQKIIFNNQELFDLKAAIDTKDSQLDSKLFDYFKEKAFPNLSTKHLGVFPDHVIDMFINGYRLSLLNHGPTPVKRGSKDKRGGIFDAVFTRGVQSKLLTNRHDLKNKTLKEISDLIKQELTEGKALGISHTYANGRINHVINLWGADFDAEGNLEAIYVTDSDTNPSIGMKKYFVGVNSSGKVAISAKEIEEDNIGAQVLGLFTLSTGQDIWNQTN | 169 | 257 | 97 | 589
15 | PRT-276 (protein) MVTSVWTKGVTPPTDFIYGEDVLHAPYKAGQGWYDITKTFNGKDNLLCGAATAGNMLHWWFDQNKEQIENYLKKHPEKQKIIFNNQELFDLKAAIDTKDSQLDSKLFEYFLEKAFPNLSTKHLGVFPDHVIDMFINGYRLSLLNHGPTPVKRGSKDKRGGIFDAVFTRGVQSKLLTNRHDLKNKTLKEISDLIKQELTEGKALGISHTYANVRINHVINLWGADFDAEGNLEAIAVTDSDTNASIGMKKYFVGVNSSGKVAISAKEIEEDNIGAQVLGLFTLSTGQDIWNQTN | 912 | 383 | 0 | 0
